From US20220249563A1 (LEGEND BIOTECH IRELAND, published 2022) come the findings set out here.

T1: extracellular domain of human DLL3 protein (aa27-466) having an N-terminal FLAG tag (AdipoGen, AG-40B-0151) (human, UniProt Q9NYJ7 27-466)
T1 construct: range 27-466; also called DLL3 ECD protein
T1 sequence (looked up): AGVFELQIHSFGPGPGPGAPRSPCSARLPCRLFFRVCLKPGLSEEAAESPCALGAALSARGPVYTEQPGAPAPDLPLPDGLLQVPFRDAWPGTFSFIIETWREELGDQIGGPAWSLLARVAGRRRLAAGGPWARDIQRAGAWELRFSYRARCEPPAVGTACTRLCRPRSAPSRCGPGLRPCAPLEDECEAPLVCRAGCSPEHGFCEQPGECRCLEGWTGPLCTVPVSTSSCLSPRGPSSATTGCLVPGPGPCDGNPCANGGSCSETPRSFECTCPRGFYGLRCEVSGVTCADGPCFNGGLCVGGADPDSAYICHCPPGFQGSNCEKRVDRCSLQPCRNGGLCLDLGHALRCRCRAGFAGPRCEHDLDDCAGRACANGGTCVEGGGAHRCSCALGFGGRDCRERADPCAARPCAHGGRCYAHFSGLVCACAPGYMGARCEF

B1: AS64617 HCAb (Fc fusion, not shown: a dimerising Fc or GST)
chain: QVQLVESGGGSVQAGGSLRLSCAASGYTDRCSMAWYRQAPGKERELVSRISTSGFTNYAASVKGRFTISQDNAKNTVYLQMNSLNPGDTGMYYCAIIVGRTCSLNYWGNGILVTVSS
B2: AS64052 HCAb (Fc fusion, not shown: a dimerising Fc or GST)
chain: QVHLMESGGGSVQAGGSLRLSCAASGYTYRSNFMGWFRQAPGKEREGIATIHSGVATTYYADSVKGRFTISQDNAKNTVYLQMNSLKPEDTAMYYCAAGGPPANADRWYPLRPPGYNYWGQGTQVTVSS
B3: AS64062 HCAb (Fc fusion, not shown: a dimerising Fc or GST)
chain: QVRLVESGGGSVQVGGSLRLSCAASRSPYSSSRCMGWFRQAPGKEREGVAALYTGGGSTSYADSVKGRFTISQDNAKNTVYLQMNSLKPEDTAMYYCAAVVPRGGSCRLDERGYYHWGQGTQVTVSS
B4: AS63931 HCAb (Fc fusion, not shown: a dimerising Fc or GST)
chain: EVQLAESGGGSVQAGGSLRLSCAGSFSGYGVSTMAWFRQAPGKEREGVAAITVGSGNTYYADSVTGRFTISRDNAKRTVYLQMNSLKPEDTAMYYCAAGWLSGGSWHVPGRYNYWGQGTQVTVSS
B5: AS64047 HCAb (Fc fusion, not shown: a dimerising Fc or GST)
chain: QVHLVESGGGSVQAGGSLRLSCAASQYVYRWDLMGWFRQAPGKEREAVAAVYTGDGITYYADSVKGRFSISQDNAKNTVYLQMNSLKPEDTGMYFCAAGFVSGGRWNQSYRYKYWGQGTQVTVSS
B6: AS69443 HCAb (Fc fusion, not shown: a dimerising Fc or GST)
chain: EVQLAESGGGSVQAGGSLRLSCSASGFTFDDSDMAWYRQAPGDGCDLVSTISSDGSTYYADSVKGRFTISQDNAKNTVYLQMHSLKPEDTAVYYCAADFLTGFYYSDSPHPAPCSASDFGYWGQGTQVTVSS
B7: AS56788 scFv (scFv, V domains shown)
VH: EVQLVESGGGLVQPGGSLRLSCAASGFNISSYSMHWVRQAPGKGLEWVAYISSYYGYTYYADSVKGRFTISADTSKNTAYLQMNSLRAEDTAVYYCARYSYYYGMDYWGQGTLVTVSS
VL: DIQMTQSPSSLSASVGDRVTITCRASQSVSSAVAWYQQKPGKAPKLLIYSASSLYSGVPSRFSGSRSGTDFTLTISSLQPEDFATYYCQQHYAPSLITFGQGTKVEIK
notes: also called A556788
B8: AS56704 scFv (scFv, V domains shown)
VH: EVQLVESGGGLVQPGGSLRLSCAASGFNISSSYMHWVRQAPGKGLEWVAYIYPSYGYTSYADSVKGRFTISADTSKNTAYLQMNSLRAEDTAVYYCARGGYYYHGMDYWGQGTLVTVSS
VL: DIQMTQSPSSLSASVGDRVTITCRASQSVSSAVAWYQQKPGKAPKLLIYSASSLYSGVPSRFSGSRSGTDFTLTISSLQPEDFATYYCQQASWSPITFGQGTKVEIK
notes: also called A556704

One assay concerns the target T1, extracellular domain of human DLL3 …. Description: SPR (Biacore), captured antibody, human DLL3 as analyte. From the text: The camel and humanized sdAb sequences were fused with human IgG1 hinge and Fc, resulting the chimeric and humanized HCAb sequences. The DNAs encoding these HCAbs were synthesized and inserted into pTT5 vector. HCAb expression plasmids were used to transfect HEK293 cells. Crude HCAb proteins secreted to the medium were subjected to SPR affinity measurement as follows: briefly, capturing antibody anti-human Fc pAb (GE healthcare) was immobilized on a Biacore™ CM5 chip to approximately 6,000 RU using EDC-activated amine coupling chemistry. HCAb of interest was captured for 300 seconds onto the sensorchip surface. Human DLL3 (AdipoGen, AG-40B-0151) was flowed over the sensorchip surface at a series of increasing concentrations. Association and dissociation phases were monitored. Captured antibody and antigen were removed between cycles using 10 mM Glycine-HCl, pH 2.0 buffer in order to ensure a fresh binding surface for the antigen. The resulting sensorgrams were fit globally using a 1:1 binding model in order to calculate on- and off-rates (ka and kd, respectively), as well as affinities (KD).
Consider B1, for which the Kd (in general, a measure of binding affinity in units of concentration) stood at 20 nM; the koff (commonly a measure of how fast the partners let go of each other) was 0.0038 s⁻¹; the kon (as a rule, the rate constant with which the complex forms) was found to be 190000 M⁻¹ s⁻¹.
The like results for B2 were, in that order, 4 nM, 0.00041 s⁻¹ and 100000 M⁻¹ s⁻¹.
As for B3, the Kd was 6.9 nM, the koff came out at 0.00071 s⁻¹ and the kon was found to be 100000 M⁻¹ s⁻¹.
The like results for B4 were, in that order, 47 nM, 0.17 s⁻¹ and 3.6e+06 M⁻¹ s⁻¹.
The corresponding values for B5 are 6.7 nM, 0.00096 s⁻¹ and 140000 M⁻¹ s⁻¹.
The like results for B6 were, in that order, 0.96 nM, 9e-05 s⁻¹ and 94000 M⁻¹ s⁻¹.

The target is the same in the next assay. Description: SPR (Biacore), same procedure as for the HCAbs, human DLL3 as analyte. On the technique in general: Surface plasmon resonance follows binding to a sensor surface in real time, without labels.
With B7, the affinity, expressed as Kd, was 23 nM; the koff is 0.003 s⁻¹; the kon came to 130000 M⁻¹ s⁻¹.
As for B8, the koff came out at 0.000559 s⁻¹ and the kon was determined as 66000 M⁻¹ s⁻¹.
